Laboratory results reported in PMC10825162 (Nature Communications, 2024).

Molecular target: SARS-CoV-2 BA.1 RBD protein (SARS-CoV-2 Omicron BA.1, strain)
Assay: SPR
Conditions: both partners purified

B1: BA7208 (antibody, V domains shown)
VH: EVQLVQSGAEVKKPGESLKISCKGSGYSFTSYYWIGWVRQMPGKGLEWMGIVYPDDSDTRYSPSFQGQVTISADKSISTAYLQWSSLKASDTAMYYCVRHPGGGDWYFDLWGRGTLVTVSS
VL: DIQMTQSPSTLSASVGDRVTITCRASQSISSWLAWYQQKPGKAPKLLIYKASSLESGVPSRFSGSGSGTEFTLTITSLQPDDFATYYCQQYDSFSWTFGQGTKLEIK
B1 was tested, and the Kd was 1.81 nM.
